{
  "source": "paper doi:10.1101/2025.03.17.643777",
  "about": "“Closed State Structure of the Pore Revealed by Uncoupled Shaker K^+ Channel” (bioRxiv, 2025)",
  "proteins": {"B1": {"name": "Shaker-IR-I384R (natural protein, UniProt P08510 1-655, looked up)", "chain": "MAAVALREQQLQRNSLDGYGSLPKLSSQDEEGGAGHGFGGGPQHFEPIPHDHDFCERVVINVSGLRFETQLRTLNQFPDTLLGDPARRLRYFDPLRNEYFFDRSRPSFDAILYYYQSGGRLRRPVNVPLDVFSEEIKFYELGDQAINKFREDEGFIKEEERPLPDNEKQRKVWLLFEYPESSQAARVVAIISVFVILLSIVIFCLETLPEFKHYKVFNTTTNGTKIEEDEVPDITDPFFLIETLCIIWFTFELTVRFLACPNKLNFCRDVMNVIDIIAIIPYFITLATVVAEEEDTLNLPKAPVSPQDKSSNQAMSLAILRVIRLVRVFRIFKLSRHSKGLQRLGRTLKASMRELGLLIFFLFIGVVLFSSAVYFAEAGSENSFFKSIPDAFWWAVVTMTTVGYGDMTPVGVWGKIVGSLCAIAGVLTIALPVPVIVSNFNYFYHRETDQEEMQSQNFNHVTSCPYLPGTLGQHMKKSSLSESSSDMMDLDDGVESTPGLTETHPGRSAVAPFLGAQQQQQQPVASSLSMSIDKQLQHPLQQLTQTQLYQQQQQQQQQQQNGFKQQQQQTQQQLQQQQSHTINASAAAATSGSGSSGLTMRHNNALAVSIETDV", "notes": "built on the Shaker-IR model PDB 7SIP; The C-terminal HRV 3C site was cut to release the channel from the beads, so residues of the site may remain; also called uncoupled channel; completely uncoupled I384R mutant; not shown: eGFP, C-terminal, cleaved; 8xHis, C-terminal, cleaved"}},
  "molecular_target": "the molecule itself",
  "assay": "cryo-EM structure; single-particle cryo-EM of the purified channel in 0.02% GDN, 150 mM KCl, 50 mM TRIS pH 7.5; C4 symmetry imposed",
  "data": [
    {"protein": "B1", "values": [
      {"measurement": "stoichiometry N", "value": 4}
    ]}
  ]
}
